# Measurements from patent US20190015518A1, “DRUG DELIVERY COMPOSITIONS AND METHODS” (priority 2016, published 2019).
# Key:
# [1] = test system: A2058 (human melanoma) cells; experiment: Anti-proliferative activity (Resazurin Blue, 72 hours); format: cell-based; conditions: mean ± S.E.M., cisplatin basis
# Procedure: MDA-1986 (human head and neck squamous cell carcinoma), 4T1.2-neu (murine breast cancer cells), and A2058 (human melanoma) cells were maintained in Dulbecco's Modified Eagle Medium (DMEM, Corning, Manassas, Va.) with 4.5 g/L glucose, 4.5 g/L L-glutamine, and 10% fetal bovine serum in a humidified incubator at 37° C. and 5% CO2. Cells were seeded into 96-well plates (3,000 cells/well in 90 μL media) and allowed to attach overnight. […] Resazurin Blue (Acros Organics, Geel, Belgium) in PBS was added to each well (5-μM final concentration; 10-μL addition) and incubated at 37° C. for 4 hours. Fluorescence (λex 550 nm, λem 605 nm) was quantified with a SpectraMax Gemini XS plate-reader (Molecular Devices, Sunnyvale, Calif.). The relative growth of cells incubated with each compound concentration was normalized to vehicle-treated controls (100% proliferation). Data from at least three separate experiments performed in duplicate was analyzed using non-linear regression (GraphPad Prism 5.0) to generate IC50 values.
# [2] = Urinalysis of a healthy dog given 1.5 mg/kg on day 1 and 2.0 mg/kg on day 70, sub-mucosa; format: in vivo
# Procedure: Before each dose, the dog was examined by clinical chemistry, hematology, and urinalysis. Additional examinations of clinical chemistry and hematology were performed on days 7, 14, and 42 after the first dose. Additional tests of urinalysis were performed on days 7 and 14 after the first dose. The potential drug-induced toxicities were monitored for 56 days after the second dose. Specifically, clinical chemistry and urinalysis were performed on days 7, 14, 21, and 56, and hematology was performed on days 7, 14, and 56 after the second dose to evaluate the tolerability and toxicity of the formulation.
# Urianlyses were performed at pre- and post-dose for both injections. The injections were given via the sub-mucosa in the mouth.
# [3] = Pharmacokinetics in three tumor-bearing dogs (three-compartmental model); format: in vivo, dog; conditions: 10 mg/m2
# Procedure: An open label, multiple dose/dosage phase I/II trial of 75HA-Lys-Pt was conducted at the University of Missouri Veterinary Medical Teaching Hospital (MU-VMTH). The clinical trial protocol was approved by the University of Missouri ACUC. Dogs of any age, sex, or breed presented to the MU-VMTH oncology service with the a histological diagnosis of anal sac carcinoma, oral squamous cell carcinoma, oral melanoma, nasal carcinoma, or digital squamous cell carcinoma with a performance score of 0 or 1 (0: normal activity; 1: restricted activity; 2: compromised activity; 3: disabled; 4: dead) and without comorbid conditions that would limit life expectancy to less than nine weeks were offered enrollment in the trial.
# Following complete staging, client consent was obtained to enroll each dog in the study. Once enrolled in the study, longest tumor diameters of all target lesions were recorded. An indwelling jugular catheter was placed to facilitate collection of blood samples. Dogs received 10 to 30 mg/m^2 intra-tumoral injections through 1 to 3 pre-placed 22-ga spinal needles once every three weeks for up to four planned doses. Dogs were sedated or anesthetized for each treatment, and a 2-mL blood sample was collected from the jugular catheter at 0.5, 1, 2, 4, and 24 hours following drug administration. Blood samples were spun, plasma was collected and frozen within two hours. A CBC and renal profile with urinalysis were conducted prior to and one week after each treatment. Some dogs experiencing apparent adverse effects of drug administration had complete biomedical profiles performed. Tumor measurements were collected three weeks following each administration to assess response.
# Serum samples of 3 dogs were diluted 20-fold in 1% HNO3, and vortexed prior to inductively coupled plasma mass spectrometry (ICP-MS) analysis. The platinum concentration of serum was determined using an Agilent 7500i ICP-MS. A calibration curve was generated from 1 to 50 ppb platinum (acceptable criterion R^2>0.995) and 50-ppb bismuth was used as an internal standard. […] The pharmacokinetics were modeled using a SAAM II three-compartmental model.
# The serum pharmacokinetics data was modeled using a three-compartmental model with an injection site compartment (q3), a serum compartment (q1), and a tissue compartment (q2). […] Three transfer constants, k(1,3), k(1,2) and k(2,1), and one loss constant, k(0,1), were assigned to the model. The k(1,3) defined the drug absorption process allowing the transfer of HA-Pt from the injection site compartment to the serum compartment. A reversible k(3,1) was not necessary as a sink condition was assumed. Due to the concentration gradient between the injection site and the central serum compartments, drug redistribution back to the injection site was not expected. […] Drug transfer and equilibrium between plasma and tissue compartments were represented by k(1,2) and k(2,1). Post-injection drug diffused from the tissue at the injection site to the blood capillaries and the lymphatic vessels. Eventually the drug molecules entered the systemic circulation and distributed into organs. It is likely that the highly perfused organs, such as liver and kidneys, established equilibrium sooner than organs with low blood flow.
substance,measurement,setting,value
HA-cis-[Pt(NH3)2(N^α-Acetyl-L-Lysine)] [75HA-Lys-Pt],IC50,[1],69.8 ± 7 µM
same,Urobilinogen,"[2]; 2 mg/kg, 7 days after",0.2 E.U./dL
same,urine Bilirubin,"[2]; 2 mg/kg, 7 days after",Moderate
same,urine Blood,"[2]; 2 mg/kg, 7 days after",Negative
same,urine Clarity,"[2]; 2 mg/kg, 7 days after",Clear
same,urine Color,"[2]; 2 mg/kg, 7 days after",Dark Yellow
same,urine Glucose,"[2]; 2 mg/kg, 7 days after",Negative
same,urine Ketones,"[2]; 2 mg/kg, 7 days after",Negative
same,urine Leukocytes,"[2]; 2 mg/kg, 7 days after",Negative
same,urine Nitrite,"[2]; 2 mg/kg, 7 days after",Negative
same,urine Protein,"[2]; 2 mg/kg, 7 days after",30 mg/dL
same,urine Specific Gravity,"[2]; 2 mg/kg, 7 days after",1.053
same,urine pH,"[2]; 2 mg/kg, 7 days after",7.0
same,Urobilinogen,"[2]; 2 mg/kg, 14 days after",0.2 E.U./dL
same,urine Bilirubin,"[2]; 2 mg/kg, 14 days after",Negative
same,urine Blood,"[2]; 2 mg/kg, 14 days after",Large
same,urine Clarity,"[2]; 2 mg/kg, 14 days after",Clear
same,urine Color,"[2]; 2 mg/kg, 14 days after",Light Yellow
same,urine Glucose,"[2]; 2 mg/kg, 14 days after",100 mg/dL
same,urine Ketones,"[2]; 2 mg/kg, 14 days after",Negative
same,urine Leukocytes,"[2]; 2 mg/kg, 14 days after",Negative
same,urine Nitrite,"[2]; 2 mg/kg, 14 days after",Negative
same,urine Protein,"[2]; 2 mg/kg, 14 days after",≥300 mg/dL
same,urine Specific Gravity,"[2]; 2 mg/kg, 14 days after",1.010
same,urine pH,"[2]; 2 mg/kg, 14 days after",7.5
same,Urobilinogen,"[2]; 2 mg/kg, 21 days after",1.0 E.U./dL
same,urine Bilirubin,"[2]; 2 mg/kg, 21 days after",Moderate
same,urine Blood,"[2]; 2 mg/kg, 21 days after",Small
same,urine Clarity,"[2]; 2 mg/kg, 21 days after",Clear
same,urine Color,"[2]; 2 mg/kg, 21 days after",Dark Orange
same,urine Glucose,"[2]; 2 mg/kg, 21 days after",Negative
same,urine Ketones,"[2]; 2 mg/kg, 21 days after",Trace
same,urine Leukocytes,"[2]; 2 mg/kg, 21 days after",Negative
same,urine Nitrite,"[2]; 2 mg/kg, 21 days after",Negative
same,urine Protein,"[2]; 2 mg/kg, 21 days after",30 mg/dL
same,urine Specific Gravity,"[2]; 2 mg/kg, 21 days after",1.044
same,urine pH,"[2]; 2 mg/kg, 21 days after",7.0
same,Urobilinogen,"[2]; 2 mg/kg, 56 days after",1.0 E.U./dL
same,urine Bilirubin,"[2]; 2 mg/kg, 56 days after",Moderate
same,urine Blood,"[2]; 2 mg/kg, 56 days after",Large
same,urine Clarity,"[2]; 2 mg/kg, 56 days after",Clear
same,urine Color,"[2]; 2 mg/kg, 56 days after",Dark Orange
same,urine Glucose,"[2]; 2 mg/kg, 56 days after",Negative
same,urine Ketones,"[2]; 2 mg/kg, 56 days after",Negative
same,urine Leukocytes,"[2]; 2 mg/kg, 56 days after",Negative
same,urine Nitrite,"[2]; 2 mg/kg, 56 days after",Negative
same,urine Protein,"[2]; 2 mg/kg, 56 days after",30 mg/dL
same,urine Specific Gravity,"[2]; 2 mg/kg, 56 days after",1.030
same,urine pH,"[2]; 2 mg/kg, 56 days after",8.0
same,Urobilinogen,"[2]; […], 7 days after",0.2 E.U./dL
same,urine Bilirubin,"[2]; […], 7 days after",Negative
same,urine Blood,"[2]; […], 7 days after",Negative
same,urine Clarity,"[2]; […], 7 days after",Cloudy
same,urine Color,"[2]; […], 7 days after",Yellow
same,urine Glucose,"[2]; […], 7 days after",Negative
same,urine Ketones,"[2]; […], 7 days after",Negative
same,urine Leukocytes,"[2]; […], 7 days after",Negative
same,urine Nitrite,"[2]; […], 7 days after",Negative
same,urine Protein,"[2]; […], 7 days after",Negative
same,urine Specific Gravity,"[2]; […], 7 days after",1.023
same,urine pH,"[2]; […], 7 days after",8.0
same,Urobilinogen,"[2]; […], 14 days",0.2 E.U./dL
same,urine Blood,"[2]; […], 14 days",Large
same,urine Clarity,"[2]; […], 14 days",Cloudy
same,urine Color,"[2]; […], 14 days",Yellow
same,urine Glucose,"[2]; […], 14 days",Negative
same,urine Ketones,"[2]; […], 14 days",Negative
same,urine Leukocytes,"[2]; […], 14 days",Negative
same,urine Nitrite,"[2]; […], 14 days",Negative
same,urine Protein,"[2]; […], 14 days",30 mg/dL
same,urine Specific Gravity,"[2]; […], 14 days",1.038
same,urine pH,"[2]; […], 14 days",6.5
same,long-term renal damage,[2]; healthy dog,did not appear to cause long-term renal damage
same,AUC,[3]; Dog 1 (28.7 kg),4000 ng·h/mL
same,Cmax,[3]; Dog 1 (28.7 kg),174 ng/mL
same,Tmax,[3]; Dog 1 (28.7 kg),60 min
same,Vss,[3]; Dog 1 (28.7 kg),2 L/kg
same,AUC,[3]; Dog 2 (25.2 kg),900 ng·h/mL
same,Cmax,[3]; Dog 2 (25.2 kg),155 ng/mL
same,Tmax,[3]; Dog 2 (25.2 kg),30 min
same,Vss,[3]; Dog 2 (25.2 kg),33.4 L/kg
same,AUC,[3]; Dog 3 (6.5 kg),2200 ng·h/mL
same,Cle,[3]; Dog 3 (6.5 kg),1.53 mL/min/kg
same,Cmax,[3]; Dog 3 (6.5 kg),128 ng/mL
same,Tmax,[3]; Dog 3 (6.5 kg),30 min
same,Vss,[3]; Dog 3 (6.5 kg),8.9 L/kg
